Laboratory results taken from patent US20200071424A1.

Columns and labels:
[1] = biological target: cynomolgus monkey EL (cynomolgus monkey); test: cell-based or functional assay
[2] = biological target: cynomolgus monkey EL (cynomolgus monkey); test: Biacore; EL captured by anti-C2-tag Ab; bivalent fit
[3] = biological target: human-mouse chimeric EL (construct not specified); test: cell-based or functional assay
[4] = biological target: human-mouse chimeric EL (construct not specified); test: Biacore; EL captured by anti-C2-tag Ab; bivalent fit

Binder	Neutralizing activity IC50 [1]	Kd [2]	koff [2]	kon [2]	Neutralizing activity IC50 [3]	Kd [4]	koff [4]	kon [4]
h12B10-S1 (antibody, V domains shown) VH: EVQLVESGGGLVKPGGSLRLSCAASGFSLSTSGMGVGWVRQAPGKGLEWLAHIWWNDEKYYNPSLKSRFTISRDDSKNTLYLQMNSLKTEDTAVYYCARDHLAYYFDVWGQGTLVTVSS VL: DIQMTQSPSSLSASVGDRVTITCKASQDINKYIAWYQQKPGKAPKLLMAYPFTLQPGVPSRFSGSGSGTDFTLTISSLQPEDFATYYCLQYDNLLWTFGQGTKVEIK	–	–	–	–	6 nM	1.9 nM	0.00035 s⁻¹	190000 M⁻¹ s⁻¹
h12B10-S2 (antibody, V domains shown) VH: EVQLVESGGGLVKPGGSLRLSCAASGFSLSTSGMGVGWVRQAPGKGLEWLAHIWWNDEKYYNPSLKSRFTISRDDSKNTLYLQMNSLKTEDTAVYYCARDHLAFYFDLWGQGTLVTVSS VL: DIQMTQSPSSLSASVGDRVTITCKASQDINKYIAWYQQKPGKAPKLLMAYPFTLQPGVPSRFSGSGSGTDFTLTISSLQPEDFATYYCLQYDNLLWTFGQGTKVEIK	–	–	–	–	5.4 nM	0.14 nM	3.3e-05 s⁻¹	240000 M⁻¹ s⁻¹
h12B10-S3 (antibody, V domains shown) VH: EVQLVESGGGLVKPGGSLRLSCAASGFSLSTSGMGVGWVRQAPGKGLEWLAHIWWNDEKYYNPSLKSRFTISRDDSKNTLYLQMNSLKTEDTAVYYCARDHLAFFFDLWGQGTLVTVSS VL: DIQMTQSPSSLSASVGDRVTITCKASQDINKYIAWYQQKPGKAPKLLMAYPFTLQPGVPSRFSGSGSGTDFTLTISSLQPEDFATYYCLQYDNLLWTFGQGTKVEIK	–	–	–	–	4.9 nM	0.11 nM	1.7e-05 s⁻¹	150000 M⁻¹ s⁻¹
h12B10-S4 (antibody, V domains shown) VH: EVQLVESGGGLVKPGGSLRLSCAASGFSLSSSGMGVGWVRQAPGKGLEWLAHIWWNDEKYYNPSLKSRFTISRDDSKNTLYLQMNSLKTEDTAVYYCARDHLVFFFDLWGQGTLVTVSS VL: DIQMTQSPSSLSASVGDRVTITCKASQDINKYIAWYQQKPGKAPKLLMAYPFTLQPGVPSRFSGSGSGTDFTLTISSLQPEDFATYYCLQYDNLLWTFGQGTKVEIK	–	–	–	–	6.2 nM	–	–	–
h13B3-S1 (antibody, V domains shown) VH: QVQLVQSGAEVKKPGASVKVSCKASGYTFTEYTMHWVRQAPGQGLEWMGSINPYYGGTSYNEKFKDRVTMTRDTSTSTVYMELSSLRSEDTAVYYCARYGNYVGYFDYWGQGTTVTVSS VL: EIVLTQSPGTLSLSPGERATLSCRASSSVHYMYWYQQKPGQAPRLLIYYTSNLAPGIPDRFSGSGSGTDFTLTISRLEPEDFAVYYCQQFTSSPYTFGGGTKVEIK	2.4 nM	5.7 nM	0.00043 s⁻¹	76000 M⁻¹ s⁻¹	–	–	–	–
h13B3-S2 (antibody, V domains shown) VH: QVQLVQSGAEVKKPGASVKVSCKASGYTFTEYTMHWVRQAPGQGLEWMGSINPYYGGTSYNEKFKDRVTSTRDTSISTAYMELSRLRSDDTVVYYCARYGNYVGYFDYWGQGTTVTVSS VL: EIVLTQSPGTLSLSPGERATLSCRASSSVHYMYWYQQKPGQAPRLLIYYTSNLAPGIPDRFSGSGSGTDFTLTISRLEPEDFAVYYCQQFTSSPYTFGGGTKVEIK	3.6 nM	3.1 nM	0.00014 s⁻¹	45000 M⁻¹ s⁻¹	–	–	–	–

Next, values leading:

Neutralizing activity IC50 [1]	Kd [2]	koff [2]	kon [2]	Neutralizing activity IC50 [3]	Kd [4]	koff [4]	kon [4]	Binder
3.6 nM	11 nM	0.001 s⁻¹	94000 M⁻¹ s⁻¹	–	–	–	–	h16B3-S1 (antibody, V domains shown) VH: EVQLVESGGGLVQPGGSLRLSCAASGFTFSGYTMSWVRQAPGKGLEWVSEISFARDRAFYPDTVKGRFTISRDNSKNTLYLQMNSLRAEDTAVYYCAKLGGRNHDYWYFDVWGQGTTVTVSS VL: DIVMTQSPDSLAVSLGERATINCRASESVEYYGTSLMQWYQQKPGQPPKLLIYAASNVESGVPDRFSGSGSGTDFTLTISSLQAEDVAVYYCQQSWKVPFTFGQGTKLEIK
1.7 nM	2.3 nM	0.0003 s⁻¹	130000 M⁻¹ s⁻¹	–	–	–	–	h53A11-S1 (antibody, V domains shown) VH: QVQLVQSGAEVKKPGASVKVSCKASGYTFTDYTMHWVRQAPGQRLEWMGGINPYYGGTTYNEKFKDRVTITRDTSASTAYMELSSLRSEDTAVYYCAKGDYYGGSYNYWGQGTTVTVSS VL: EIVMTQSLATLSVSPGERATLSCRASQDISNSLHWYQQKPGQAPRLLIKYASQSISGIPARFSGSGSGTEFTLTISSLQSEDFAVYYCQQSNSWPYTFGQGTKLEIK
1.8 nM	4.3 nM	0.00065 s⁻¹	150000 M⁻¹ s⁻¹	–	–	–	–	h53A11-S2 (antibody, V domains shown) VH: QVQLVQSGAEVKKPGASVKVSCKASGYTFTDYTMHWVRQAPGQRLEWMGGINPYYGGTTYNEKFKDRVTITRDTSASTAYMELSSLRSEDTAVYYCAKGDYYGGSYNYWGQGTTVTVSS VL: EIVMTQSLATLSVSPGERATLSCRASQDISNSLHWYQQKPGQAPRLLIYYASQSISGIPARFSGSGSGTEFTLTISSLQSEDFAVYYCQQSNSWPYTFGQGTKLEIK
1.2 nM	5.8 nM	0.0007 s⁻¹	120000 M⁻¹ s⁻¹	–	–	–	–	h53A11-S3 (antibody, V domains shown) VH: QVQLVQSGAEVKKPGASVKVSCKASGYTFTDYTMHWVRQAPGQRLEWMGGINPYYGGTTYNEKFKDRVTITRDTSASTAYMELSSLRSEDTAVYYCAKGDYYGGSYNYWGQGTTVTVSS VL: EIVMTQSPATLSVSPGERATLSCRASQDISNSLHWYQQKPGQAPRLLIKYASQSISGIPARFSGSGSGTEFTLTISSLQSEDFAVYYCQQSNSWPYTFGQGTKLEIK
4.1 nM	13 nM	0.00085 s⁻¹	66000 M⁻¹ s⁻¹	–	–	–	–	h13B3-S3 (antibody, V domains shown) VH: QVQLVQSGAEVKKPGASVKVSCKASGYTFTEYTMHWVRQAPGQGLEWMGSINPYYGGTSYNEKFKDRVTMTRDTSTSTVYMELSSLRSEDTAVYYCARYGNYVGYFDYWGQGTTVTVSS VL: EIVLTQSPATLSLSPGERATLSCRASSSVHYMYWYQQKPGQAPRLLIYYTSNLAPGIPARFSGSGSGTDFTLTISSLEPEDFAVYYCQQFTSSPYTFGGGTKVEIK
2.9 nM	3.5 nM	0.00038 s⁻¹	110000 M⁻¹ s⁻¹	–	–	–	–	h13B3-S4 (antibody, V domains shown) VH: QVQLVQSGAEVKKPGASVKVSCKASGYTFTEYTMHWVRQAPGQGLEWMGSINPYYGGTSYNEKFKDRVTSTRDTSISTAYMELSRLRSDDTVVYYCARYGNYVGYFDYWGQGTTVTVSS VL: EIVLTQSPATLSLSPGERATLSCRASSSVHYMYWYQQKPGQAPRLLIYYTSNLAPGIPARFSGSGSGTDFTLTISSLEPEDFAVYYCQQFTSSPYTFGGGTKVEIK
26 nM	36 nM	0.0036 s⁻¹	100000 M⁻¹ s⁻¹	–	–	–	–	h23H8-S1 (antibody, V domains shown) VH: QVQLVQSGAEVKKPGASVKVSCKASGYTFTDNTIHWVRQAPGQGLEWMGHINPYYGGTNNNEKFKDRVTMTRDTSISTAYMELSRLRSDDTAVYYCARKGIYYSSPFDYWGQGTTVTVSS VL: DIQMTQSPSSLSASVGDRVTITCRASQDINNYLNWYQQKPGKAPKLLIYYTSKLHSGVPSRFSGSGSGTDFTLTISSLQPEDFATYYCQQGNTLPFTFGQGTKLEIK
1.7 nM	4.3 nM	0.00099 s⁻¹	230000 M⁻¹ s⁻¹	–	–	–	–	h23H8-S2 (antibody, V domains shown) VH: QVQLVQSGAEVKKPGASVKVSCKASGYTFTDNTIHWVRQAPGQGLEWMGHINPYYGGTNNNEKFKDRVTMTRDTSISTAYMELSRLRSDDTAVYYCARKGIYYSSPFDYWGQGTTVTVSS VL: DIQMTQSPSSLSASVGDRVTITCRASQDINNYLNWYQQKPGKAPKLLISYTSKLHSGVPSRFSGSGSGTDFTLTISSLQREDFATYYCQQGNTLPFTFGQGTKLEIK
1.8 nM	0.41 nM	0.00015 s⁻¹	370000 M⁻¹ s⁻¹	–	–	–	–	h23H8-S3 (antibody, V domains shown) VH: QVQLVQSGAEVKKPGASVKVSCKASGYTFTDNTIHWVRQAPGQGLEWMGHINPYYGGTNNNEKFKDRVTMTRDTSISTAYMELSRLRSDDTAVYYCARKGIYYSSPFDYWGQGTTVTVSS VL: DIQMTQSPSSLSASVGDRVTITCRASQDINNYLNWYQQKPGKAPKLLISYTSKLHSGVPSRFSGSGSGTDFTLTISSLQPEDFATYYCQQGNTLPFTFGQGTKLEIK
